# Measurements taken from the RNAGym collection of RNA variant scans (doi:10.7554/elife.90254).
# B1: LINE1-full (parent)
# chain: UACGUAGGUGGUUUUCCCCUGAUAGUGCUAAGGGGGCCUGGAAGUUUGGACUGGGCAGAGCUCAACACAGCGUGGCAAAGUGGCUGUGGCUAGACUGCCUCUCUGGAUUCCUCGUCACUCAGCAGGGCAUCUCUGAGAGAAAUGCC
# Variants of: B1
# Assay: self-cleavage, relative activity (ratio to wild type); higher = more cleavage; in vitro, sequencing; the parent is a self-cleaving ribozyme
row,Variant,self-cleavage
1,A78G U134C,1.49
2,A77G U109C,1.51
3,A77G U109A,1.75
4,A79G C128U,0.92
5,A77G U132C,2.73
6,A79G C90A,0.04
7,A77U A107G,1.29
8,A77U A107C,1.21
9,A77G G137A,2.66
10,A78G G122A,0.65
11,G80U U100C,1.02
12,A79G U81G,0.43
13,A77U C113A,0.92
14,G80A G144A,1.66
15,A78G G106U,0.66
16,A79G U100C,1.46
17,A77U U143A,1.18
18,A77G U104G,1.87
19,U81A C145A,2.25
20,A79G U102G,0.49
21,A78G A124U,1.45
22,A78C A124G,0.94
23,A78G U96C,0.1
24,A79G U96G,0.16

row,Variant,self-cleavage
1,U81A,1.89
2,A77G C99U,1.01
3,A77G C84U,0.25
4,A77U A141G,1.4
5,A77U A141C,1.32
6,A77U A141U,1.07
7,A78U A140C,2.32
8,A78U A140G,1.96
9,A78G G105A,1.8
10,A78U A94G,0.46
11,A78U A94U,0.3
12,A77G G83U,1.28
13,A78G G89A,0.04
14,A78G C116A,0.87
15,A78G A117C,1.69
16,A78G A117U,1.6
17,A79U U85A,0.07
18,A77U U109G,0.61
19,A77U U109A,1.68
20,A78C C90U,0.03
21,A78U C110U,1.28
22,A78U A129G,2.49
23,A78U U134A,2.08
24,A78U U134C,2.05

row,Variant,self-cleavage
1,A79G A138U,0.85
2,A79G A138G,1.22
3,U81A A138G,2.16
4,U81A A138C,2.3
5,A77C U115A,1.28
6,G80A U81C,1.98
7,A78G U91A,0.38
8,A79U A138G,1.76
9,A77U G83A,0.74
10,A79G U134A,1.07
11,A78C A136G,2.92
12,A77U U104A,0.58
13,C76U U132C,1.8
14,A79U A141G,1.71
15,U81A A142G,2.07
16,A78C A141G,1.74
17,U81A C146U,1.56
18,G80U,1.36
19,G80C,1.4
20,G80A,1.93
21,A79U A107G,2.26
22,A77C G114A,0.63
23,A79G C113U,0.75
24,A77G G106A,2

row,Variant,self-cleavage
1,A79G G89A,0.03
2,A79G G89C,0.05
3,A78C U100C,2.41
4,U81A C133U,1.95
5,A79U A142G,2.33
6,A79G C133A,1.12
7,A77C U112C,1.84
8,A79U A124U,0.67
9,A79U A124G,0.87
10,A77U U112C,1.29
11,G80U U109C,1.21
12,A77G G127A,2.11
13,A79G C95U,0.08
14,U81A A129U,2.57
15,G80C A107G,1.52
16,A79G A129G,1.62
17,A79G U115C,1.32
18,A78G C111U,0.93
19,A77G U102C,1.96
20,A78G U104A,1.25
21,A77G U112A,2.32
22,A77G U112C,2.18
23,A79U G89U,0.03
24,A79U G89C,0.02

row,Variant,self-cleavage
1,A77G A121U,2.74
2,A79G A136U,0.91
3,A78G A92G,0.11
4,A78G A92U,0.64
5,A77G U119A,2.04
6,A77G U119G,1.39
7,A79U U91A,0.58
8,A79C U87A,0.18
9,A77G U87C,0.42
10,A77G U87A,0.09
11,A77G U91C,0
12,A79G A121G,1.21
13,G80C U96G,0.09
14,A78G U143A,1.11
15,A78G U143C,1.18
16,A77U A94U,0.2
17,A79U U100C,2.92
18,A79U U100G,1.24
19,G80U A141G,1.1
20,G80U A141U,1.68
21,A78G U102A,1.24
22,A79G U119A,1.06
23,A79U G135C,2.76
24,A77U A136G,1.19

row,Variant,self-cleavage
1,A77U A136C,1.67
2,A77G U100C,2.88
3,A79U U102C,1.04
4,A78G U85C,0.11
5,A78G U85G,0.18
6,G80A A121G,2.16
7,A79U U87A,0.05
8,G80U U102A,1.34
9,C76U U102C,0.59
10,A77C A142G,1.34
11,A79U A136G,1.96
12,A79U A136U,2.6
13,A79G A124U,1.19
14,A79G G83A,1.03
15,A78G C133U,1.27
16,A79G A117U,1.06
17,A78G U119A,1.33
18,A78G U119C,1.55
19,A77U U81C,1.47
20,G80A A117G,2.22
21,A78G A136U,1.79
22,A78G A136G,1.45
23,A79U A94U,0.25
24,A79U A94G,0.26

row,Variant,self-cleavage
1,A79G G139U,1.19
2,G80C U132C,1.84
3,A79U G137A,1.87
4,A77U U130C,1.56
5,A77U U130A,1.01
6,A79G G93A,0.04
7,A79G G93U,0.06
8,A77U A117G,1.6
9,A77U A117U,1.21
10,A77U A117C,1.76
11,A79C U119C,1.82
12,A78C U91C,1.24
13,A78G U115A,1.12
14,A77C U81C,0
15,A78U U91C,1.13
16,A78U U91A,0.85
17,G80U U130C,0
18,A78C U96A,0.14
19,A79G G86A,0.09
20,A78U G114A,1.75
21,U81A C120A,2.51
22,U81A C120U,0.99
23,A77G A78G,1.68
24,A77U C90U,0.03

row,Variant,self-cleavage
1,A79G A107U,1.41
2,A78U U132C,1.92
3,A77C A94G,0
4,A79G G88A,0.03
5,A78U U85A,0.11
6,A78G A129G,1.65
7,A78G A129C,1.96
8,A79G U85A,0.08
9,A79G U85G,0.11
10,A79G U85C,0.11
11,U81A A117G,2.29
12,U81A A117U,1.94
13,G80A A107G,2.12
14,C76U G105C,2.51
15,A79G U112C,1.74
16,A79U A140G,1.85
17,G80A U91A,0.76
18,A78U C99U,1.07
19,A78G U81A,0.47
20,A79G G106U,1.48
21,A77U G126A,1.46
22,A78U U87G,0.23
23,A79U U132C,2.24
24,A79U U132A,1.83

row,Variant,self-cleavage
1,A78U U100C,2.81
2,A77U A142G,1.46
3,A77U U119C,1.58
4,A77C A136G,1.06
5,A77C C128U,1.67
6,A78U U81C,1.6
7,A78U G89C,0.08
8,A78U G89A,0.07
9,U81A A124C,2.45
10,U81A A124G,1.55
11,A79U U119C,2.41
12,A77U G97U,0.09
13,A77U G97A,0.07
14,A77G G80U,2.02
15,A77G G80A,2.17
16,A77G G139A,1.52
17,A79G G144A,1.5
18,A77G U96G,0.16
19,A77G U96C,0.18
20,A77C U102C,0
21,C76U U104C,2.05
22,A78U U109A,1.84
23,A77C A78G,1.63
24,A77G U81C,2.1

row,Variant,self-cleavage
1,A77G U81A,2.73
2,U81A A136U,2.35
3,U81A A136G,1.9
4,A78U U130A,2.96
5,A77G C145U,2.12
6,A77G C145A,2.43
7,A77G U85A,0.06
8,A77G U85C,0.25
9,A77G U85G,0.2
10,A78G G126U,1.75
11,A79G U143A,1.52
12,A77G A138U,2.56
13,A78G C145U,1.28
14,A78G A79G,1.14
15,A77U U134G,1.47
16,A77C U130C,1.89
17,A77U A121U,1.27
18,A77U A129C,1.28
19,A77U A129G,1.45
20,A77G U143C,2.2
21,A77G U143G,2.99
22,A77G U143A,1.85
23,A77U G93A,0.02
24,A77U U108C,1.57

row,Variant,self-cleavage
1,A77G A92U,1.11
2,A77G A92G,0.2
3,C76U G82A,2.8
4,G80C U108C,0
5,A78U U104G,0.55
6,A79G U132A,1.25
7,A79G U132C,1.43
8,A79G U109G,0.8
9,A79G U130G,2.51
10,A79G U130C,1.45
11,A77U A124G,0.79
12,A77U C146A,1.23
13,A77U U96A,0.06
14,G80U G144A,1.57
15,A77G C98U,0.54
16,A79C U96C,0.11
17,A79G C120U,1.26
18,A79G C120G,1.08
19,A78U U119A,1.82
20,G80A A124G,1
21,A77G A117U,2.58
22,A78C U119C,2.95
23,A78G C95U,0.1
24,A79G C99U,0.38

row,Variant,self-cleavage
1,A79G A94U,0.26
2,A79G G97A,0.08
3,A77G A140G,1.7
4,A77G A140U,2.21
5,C76U U108C,2.53
6,A79G A141G,1.35
7,A77G G135U,0.63
8,A79U U130C,2.63
9,A77G A142G,2.14
10,A79G C146U,1.3
11,A77G G114A,2.27
12,A79U C110A,1.64
13,A79U U81C,0.4
14,C76U U85C,0.36
15,A79C U100C,2.76
16,A78G U112C,1.24
17,A78G U112A,0.7
18,G80A A140U,1.58
19,A78G G86A,0.05
20,A78G G86U,0.08
21,A79G U87A,0.06
22,A79G U87C,0.17
23,A78U U108C,2.87
24,A77U C84U,0.08

row,Variant,self-cleavage
1,A77U U115A,0.82
2,A78G G97U,0.03
3,A78G G97A,0.11
4,A79U A129G,2.13
5,G80A U96C,0.18
6,A77U U100C,1.58
7,A77U U100A,0.91
8,A78U A138U,2.15
9,A78U A138G,2.06
10,A78G A142G,1.21
11,A79U U112A,1.97
12,A77U G114A,1.65
13,A78U,1.92
14,A78G,1.23
15,A78C,2.41
16,A79U U104C,2.47
17,A78G A107U,1.26
18,A78G A107G,1.26
19,C76U U143C,2.01
20,A78G C113U,0.93
21,A77G U134C,2.54
22,A77U A79U,1.89
23,A78G A141G,1.38
24,A78G A141U,1.66

row,Variant,self-cleavage
1,A79U A121G,1.58
2,A79G C98A,0.2
3,A79G C98U,0.45
4,A77G A129U,2
5,G80U U87C,0.2
6,G80U U87A,0.08
7,U81A C103A,1.98
8,U81A C103U,0.63
9,A78G A138U,1
10,A79U C111G,2.75
11,A79G A142G,1.12
12,A77C C116U,1.04
13,A78U U96C,0.17
14,G80A U104A,1.86
15,A79G U91C,0.45
16,A78U U112C,1.91
17,U81A A141G,1.85
18,A77G G126A,2.42
19,A77U U85A,0.07
20,A77G G82U,2.49
21,A77G G82A,0.85
22,A79C U108C,2.12
